In publication PMC12732451, “Functional Coupling of Calcium-Sensing Receptor and Polycystin-2 in Renal Epithelial Cells: Physiological Role and Potential Therapeutic Target in Polycystic Kidney Disease” (International Journal of Molecular Sciences, 2025):

Target: T1, Polycystin 2 (PC2), human, endogenous in PTEC (human (endogenous in PTEC), UniProt Q13563 1-968)
T1 construct: Polycystin 2 (PC2), encoded by the PKD2 gene, human, endogenous in PTEC; no construct, no residues stated; Endogenous protein, immunoprecipitated with anti-Polycystin-2 antibodies (Santa Cruz)
T1 sequence (looked up): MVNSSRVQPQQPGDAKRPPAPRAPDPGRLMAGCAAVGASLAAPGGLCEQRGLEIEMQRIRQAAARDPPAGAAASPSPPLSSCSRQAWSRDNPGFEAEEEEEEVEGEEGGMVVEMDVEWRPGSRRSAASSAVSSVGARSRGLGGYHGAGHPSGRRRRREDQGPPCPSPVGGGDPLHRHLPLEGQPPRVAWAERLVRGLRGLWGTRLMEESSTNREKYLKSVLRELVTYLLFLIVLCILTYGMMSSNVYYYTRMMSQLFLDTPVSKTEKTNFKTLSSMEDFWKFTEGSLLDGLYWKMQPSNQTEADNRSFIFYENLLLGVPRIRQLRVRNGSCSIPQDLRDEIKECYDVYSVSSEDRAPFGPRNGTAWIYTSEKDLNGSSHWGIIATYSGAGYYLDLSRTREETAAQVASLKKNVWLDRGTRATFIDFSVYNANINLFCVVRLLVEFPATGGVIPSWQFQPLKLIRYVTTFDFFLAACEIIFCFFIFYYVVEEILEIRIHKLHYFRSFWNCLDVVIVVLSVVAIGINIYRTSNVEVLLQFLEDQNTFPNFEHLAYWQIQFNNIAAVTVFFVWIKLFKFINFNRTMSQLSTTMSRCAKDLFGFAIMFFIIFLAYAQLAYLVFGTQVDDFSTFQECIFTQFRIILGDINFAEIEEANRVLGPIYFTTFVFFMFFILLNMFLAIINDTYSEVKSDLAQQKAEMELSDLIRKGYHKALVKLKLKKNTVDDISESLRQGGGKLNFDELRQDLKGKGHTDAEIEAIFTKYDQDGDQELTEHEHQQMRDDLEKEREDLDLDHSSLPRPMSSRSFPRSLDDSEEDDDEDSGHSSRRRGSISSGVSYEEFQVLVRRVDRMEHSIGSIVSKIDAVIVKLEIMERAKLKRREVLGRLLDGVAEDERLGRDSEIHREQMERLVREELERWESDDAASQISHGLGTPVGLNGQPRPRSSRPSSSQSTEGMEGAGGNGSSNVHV
Experiment: co-IP; PTEC wt and PC1KD (PKD1 knocked down) lysates (1% Triton X-100, 150 mM NaCl, 25 mM Hepes pH 7.4); anti-PC2 antibodies coupled to protein A-Sepharose, overnight; immunoblot with anti-CaSR and anti-PC2
Settings: partners not purified

- amount of CaSR immunoprecipitated with PC2 in PC1KD cells relative to wt (ratio CaSR/PC2): 1.34 fold (wt = 1)
B1: Calcium Sensing Receptor (CaSR), human, endogenous in PTEC (receptor, human (endogenous in PTEC), UniProt P41180 20-1078, looked up)
chain: YGPDQRAQKKGDIILGGLFPIHFGVAAKDQDLKSRPESVECIRYNFRGFRWLQAMIFAIEEINSSPALLPNLTLGYRIFDTCNTVSKALEATLSFVAQNKIDSLNLDEFCNCSEHIPSTIAVVGATGSGVSTAVANLLGLFYIPQVSYASSSRLLSNKNQFKSFLRTIPNDEHQATAMADIIEYFRWNWVGTIAADDDYGRPGIEKFREEAEERDICIDFSELISQYSDEEEIQHVVEVIQNSTAKVIVVFSSGPDLEPLIKEIVRRNITGKIWLASEAWASSSLIAMPQYFHVVGGTIGFALKAGQIPGFREFLKKVHPRKSVHNGFAKEFWEETFNCHLQEGAKGPLPVDTFLRGHEESGDRFSNSSTAFRPLCTGDENISSVETPYIDYTHLRISYNVYLAVYSIAHALQDIYTCLPGRGLFTNGSCADIKKVEAWQVLKHLRHLNFTNNMGEQVTFDECGDLVGNYSIINWHLSPEDGSIVFKEVGYYNVYAKKGERLFINEEKILWSGFSREVPFSNCSRDCLAGTRKGIIEGEPTCCFECVECPDGEYSDETDASACNKCPDDFWSNENHTSCIAKEIEFLSWTEPFGIALTLFAVLGIFLTAFVLGVFIKFRNTPIVKATNRELSYLLLFSLLCCFSSSLFFIGEPQDWTCRLRQPAFGISFVLCISCILVKTNRVLLVFEAKIPTSFHRKWWGLNLQFLLVFLCTFMQIVICVIWLYTAPPSSYRNQELEDEIIFITCHEGSLMALGFLIGYTCLLAAICFFFAFKSRKLPENFNEAKFITFSMLIFFIVWISFIPAYASTYGKFVSAVEVIAILAASFGLLACIFFNKIYIILFKPSRNTIEEVRCSTAAHAFKVAARATLRRSNVSRKRSSSLGGSTGSTPSSSISSKSNSEDPFPQPERQKQQQPLALTQQEQQQQPLTLPQQQRSQQQPRCKQKVIFGSGTVTFSLSFDEPQKNAMAHRNSTHQNSLEAQKSSDTLTRHEPLLPLQCGETDLDLTVQETGLQGPVGGDQRPEVEDPEELSPALVVSSSQSFVISGGGSTVTENVVNS
notes: Calcium sensing receptor (CaSR), human, endogenous in PTEC; no construct, no residues stated; Endogenous protein, detected with a monoclonal anti-CaSR antibody (Sigma C0493); also called extracellular calcium sensing receptor
